Data: US20080181886A1, “Polypeptides That Bind Baff And/Or April” (Genentech, Inc., priority 2004, published 2008)

Columns and labels:
APRIL [1] = target: T1, APRIL (Mus musculus, UniProt Q9D777); assay: Competitive surface plasmon resonance, APRIL binding to immobilized BCMA-Fc; design: species or system murine; details: competition with immobilized BCMA-Fc
T1 construct: made in house
T1 sequence (Q9D777 105-241): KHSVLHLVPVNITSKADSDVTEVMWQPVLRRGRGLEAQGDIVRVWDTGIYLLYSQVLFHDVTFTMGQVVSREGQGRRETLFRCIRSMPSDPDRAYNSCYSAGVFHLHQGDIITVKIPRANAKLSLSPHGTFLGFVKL
Text: Surface plasmon resonance (SPR) measurements on a BIAcore 3000 instrument (Pharmacia Biosensor) were used to measure binding affinities of receptors to immobilized APRIL and BAFF by competition binding. […] In these experiments, receptors in solution competed for binding of ligand in solution at room temperature with immobilized BCMA-Fc. BCMA-Fc was coupled to flow cell 2 of a CM4 sensor chip, using the amine coupling protocol supplied by the manufacturer, at a high density (4500 resonance units) so that the initial rate of binding was linearly dependent on the concentration of free ligand. In all experiments flow cell 1 was ethanolamine-blocked and used as the reference cell. Washing with 10 mM HCl regenerated flow cells between sample injections. In order to determine the ligand concentration necessary to obtain the optimal for competition experiments, a preliminary binding study was performed for each ligand where two-fold dilutions of the ligand ranging from 400 nM to 6.25 nM were injected over the BCMA-Fc surface. […] The IC50 values were calculated using a four-parameter curve fit (y=((m1−m4)/(1+(m0/m3)̂m2))+m4) of the initial binding rates for the receptor/control (Vi/Vo) as a function of receptor concentration.

BAFF [2] = target: T2, BAFF (Homo sapiens, UniProt Q9Y275); assay: Competitive surface plasmon resonance, BAFF binding to immobilized BCMA-Fc; details: competition with immobilized BCMA-Fc
T2 construct: made in house
Text: Surface plasmon resonance (SPR) measurements on a BIAcore 3000 instrument (Pharmacia Biosensor) were used to measure binding affinities of receptors to immobilized APRIL and BAFF by competition binding. […] In these experiments, receptors in solution competed for binding of ligand in solution at room temperature with immobilized BCMA-Fc. BCMA-Fc was coupled to flow cell 2 of a CM4 sensor chip, using the amine coupling protocol supplied by the manufacturer, at a high density (4500 resonance units) so that the initial rate of binding was linearly dependent on the concentration of free ligand. In all experiments flow cell 1 was ethanolamine-blocked and used as the reference cell. Washing with 10 mM HCl regenerated flow cells between sample injections. In order to determine the ligand concentration necessary to obtain the optimal for competition experiments, a preliminary binding study was performed for each ligand where two-fold dilutions of the ligand ranging from 400 nM to 6.25 nM were injected over the BCMA-Fc surface. The concentration of ligand that provided a slope of about 1 for the initial on-rate of the observed sensorgrams was selected as the fixed concentration to be used in the competition experiments. In all experiments where BAFE was the ligand, the buffer used was composed of 10 mM HEPES, pH 7.2, 150 mM NaCl, and 0.005% Tween-20. In all experiments where TRX-APRIL was the ligand selected, the buffer was composed of 20 mM Tris-HCl, pH 8.0, 200 mM NaCl, and 0.005% Tween-20. […] Samples were then passed over the BCMA-Fc-coupled surface. A linear fit of the initial on-rate of the observed sensorgrams was used to calculate the binding rate (V). The IC50 values were calculated using a four-parameter curve fit (y=((m1−m4)/(1+(m0/m3)̂m2))+m4) of the initial binding rates for the receptor/control (Vi/Vo) as a function of receptor concentration.

APRIL [3] = target: T1, APRIL; assay: NNS phage library of TACI CRD2 (positions 78, 79, 84, 92), APRIL selection; type: binding, murine; details: amino acid at position F78; after 3 rounds of sorting; large F′ = favorable
Method: (§1) NNS library construction and sorting.
(§2) This new phage library was subjected to sorting against either BAFF, APRIL or the display target antibody. After 3 rounds of sorting, approximately 48 clones were picked from each selection and the DNA sequences of the phage clones were determined. […] The normalized F′ value corrects for display bias and is calculated as the percent occurrence to percent degeneracy ratio for ligand selection divided by the percent occurrence to percent degeneracy ratio for display efficiency. Percent occurrence is calculated by dividing the number of times a particular amino acid appeared at a particular position by the total number of amino acids sequenced at that position followed by multiplying by 100. Percent degeneracy is calculated by dividing the degeneracy in code for a particular amino acid divided by the total degeneracy possible at that position followed by multiplying by 100 (e.g., if only A, G and I were selected, total degeneracy possible would be 5).

BAFF [4] = target: T2, BAFF; assay: NNS phage library of TACI CRD2 (positions 78, 79, 84, 92), BAFF selection; type: binding; details: amino acid at position F78; after 3 rounds of sorting; large F′ = favorable
Method: as §1, §2

BAFF [5] = target: T2, BAFF; assay: Competitive ELISA, BAFF; type: binding; details: data not shown
APRIL [6] = target: T1, APRIL; assay: Competitive ELISA, APRIL; type: binding, murine; details: data not shown

T2 sequence (Q9Y275 82-285 limits assumed): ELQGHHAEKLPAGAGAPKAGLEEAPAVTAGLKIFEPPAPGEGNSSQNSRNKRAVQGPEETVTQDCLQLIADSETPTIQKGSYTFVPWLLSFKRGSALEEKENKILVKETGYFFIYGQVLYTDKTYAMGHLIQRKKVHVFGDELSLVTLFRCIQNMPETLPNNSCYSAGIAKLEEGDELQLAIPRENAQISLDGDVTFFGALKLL

## TACI_d1: first CRD of TACI (residues 32-67), expressed in E. coli (RSCPEEQYWDPLLGTCMSCKTICNHQSQRTCAAFCR)
APRIL [1]
  IC50 for APRIL, in words: in the micromolar range
BAFF [2]
  IC50 for BAFF, in words: in the micromolar range
  affinity for BAFF, comparison in words: an interaction was observed

## TACI CRD1 Loop Swap: human TACI CRD1 (R32-R67) with residues NHQSQRT substituted by GQHPKQ of hTACI CRD2 (RSCPEEQYWDPLLGTCMSCKTICGQHPKQCAAFCR)
APRIL [1]
  affinity for APRIL, comparison in words: increased TACI CRD1 affinity
BAFF [2]
  affinity for BAFF, comparison in words: increased TACI CRD1 affinity

## F78F: phage-displayed TACI CRD2, wild-type F retained at position 78 (NNS library) (SLSCRKEQGKFYDHLLRDCISCASICGQHPKQCAYFCENKLR; CRD2 phage-displayed; UniProt O14836 68-109, looked up, fragment)
APRIL [3]
  F′ APRIL F78: 2
BAFF [4]
  F′ BAFF F78: 3

## TACI_d2: second cysteine-rich domain (CRD2, residues 68-109) of TACI, with four additional residues (GSPW) at the N-terminus (GSPWSLSCRKEQGKFYDHLLRDCISCASICGQHPKQCAYFCENKLR)
BAFF [5]
  binding to BAFF, in words: sufficient for high-affinity binding
APRIL [6]
  binding to APRIL, in words: sufficient for high-affinity binding
